The nature of this data set: yeast display, Sf9 membrane polyspecificity reagent, FACS + sequencing; frameworks hold sequencing errors. The gist of the method:
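A synthetic nanobody library was expressed on Saccharomyces cerevisiae BJ5465 by galactose induction for 36–48 hours. The library was stained for 1 hour at 4 °C with 10% biotinylated, detergent-solubilized Sf9 membrane reagent and enriched with streptavidin microbeads before FACS. Low and high (top ~1%) gates were set on anti-HA fluorescence for expression and streptavidin fluorescence for reagent binding, and each polyreactivity label reflects the gate of origin.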
Regarding “QVQVVESGGGLVQAGGSLRLSCAASGRIFYTNAMGWYRQAPGKERELVAVISWGGDTTYYADSVKGRFTISRDKAKNTVYLQMNSLKPEDTAVYYCNADWGPTYEIYDSWGQGTQVTVSS”, the “polyreactivity (PSR sort gate)” value is reported as “low polyreactivity”. Next, “QVQVVESGGGLVQAGGSLRLSCAASGSIFFFYAMGWYRQAPGQERELVAAITGSGGSTYYADSVKGRFTISRDKAKNTVYLQMNSLKPEDPAVYYCAVRTSRQVYSYGGYESWGHGTQVTVSS”: “low polyreactivity”. As for “QVQVVESGGGLVQAGGSLRLSCAASGSIFYDYAMGWYRQAPGKERELVAAISWSGGRTYYADSVKGRFTISRDYAKNTVYLQMNSLKPEDTAVYYCAATTGVRSRRYYYWGQGTQVSVSS”, the “polyreactivity (PSR sort gate)” value was “low polyreactivity”.

For the sequence “QVQVVESGGGLVQAGGSLRLSCAASGSILGLYAMGWYRQAPGKERELVAAITYRGGRTDYADSVKGRFTISRDNAKNTVYLQMNCLKPEDTAVYYCAAGYLPRPRYSTSYLYYYWGQGTQVTVSS”, the “polyreactivity (PSR sort gate)” value is listed as “high polyreactivity”. With “QVQVVESGGGLVQAGGSLRLSCAASGSTFGYYAMGWYRQAPGKERELVAAISGTGSTYYADSVKGRFTISRDNAKNTVFLQMNSLKPEDTAVYYCAAYPRGSQRYNYWGQGTQVTVSS”, the “polyreactivity (PSR sort gate)” value was “high polyreactivity”.

Turning to “QVQVVESGGGLVQAGGSLRLSCAASGSTFVIYDMGWYRQAPGKERELVAVITIIGGSTYYADAVKGRFTISRDNAKNTVYLELNSLKPEDTAVYDCAVEVGYTDSPYSYDYWGQGTQVTVSS”, the “polyreactivity (PSR sort gate)” value is “low polyreactivity”. Next, “QVQVVESGGGLVQAGGSLRLSCAASGSTLSKNAMGWYRQAPGKERELVAAITLRGGSTSFADSVKGRFTISRDNAMNTVYLHMNSLKPEDTAVYYCNAVSKFDYGYWVQGTQVTVSS”: “high polyreactivity”; “QVRLVESGGGLVQAGGSLRLSCAASGFTFVVNAMGWYRQAPGKERELVAAITCSGGRTYYADSVKGRFTISRDNAKNTVSLQMNSLKPEDTAVYYCNAEWDDYEIEYDYWGQGTQVTVSS”: “low polyreactivity”; “QVRLVESGGGLVQAGGSLRLSCAASGRIFYRYAIGWYRQAPGKERELVAAISSSGGSTYYADSVKGRFTISRDNAKNTVYLQMNSLKPEDTAVYYCAADAGSINSGYDYWGQGTQVTVSS”: “low polyreactivity”. With “QVRLVESGGGLVQAGGSLRLSCAASGRTFRIYAMGWYRQAPGKERELVAAIRWSGGTTYYADSVKGRFTISRDNAKNTVYLQMNSLKPEDTAVYYCNTNSYYEDDYWGQGTQVTVSS”, the “polyreactivity (PSR sort gate)” value was “high polyreactivity”.

“QVRLVESGGGLVQAGGSLRLSCAASGSTFKTYAMGWYRQAPGKERELVAAISAGGGSTYYADSVKGRFTISRDNAKNTVYLQMYSLKPEDTAVYYCAAAYIYAGWDYEYWGQGTQVTVSS”: the “polyreactivity (PSR sort gate)” value is listed as “low polyreactivity”. Next, “QVWLQESGRGLLQACGSLRLSCAASGTISRDIFMGWYRQAPGKEREFVATIAQGGITNYADSVKGRFTISRDNAKNTVYLQMNSVKPGDTAVYFCAARDGNCYWFYYWGQGTQVTVSS”: “high polyreactivity”.

For the sequence “QYQLGESGGGLVQAGGSLRLSCAASGRIFTWNAMGWYRQAPGKERELVAAIRRGGGTYADSVKGRYTISRDNGKNTFYLQMHSLKPEDTAVYYCAATSGYYAMNYWGQGTQVTVSS”, the “polyreactivity (PSR sort gate)” value is recorded as “high polyreactivity”. Under “QYQLVESGGCLVQAGGTLRLRCAATGFTFKSYAMGWYRHAHGKAWELVAAISNRGGSTYYADSVKGRFTISRDNAKNSVYLQINSLKPEDNAVYYCATQYYVRPFDYWGQGTQVTVSS” stands “high polyreactivity”; under “QYQLVESGGGLVQAGGSLRLSCAASGRIFLVYVMGWYRQAPGKERELVADITFSGGSTYYADSVKGRFTISRDNEKNNVYLQMNSLKPEYTAVYYCAAATWSFLDYWGQGTQVTVSS”, “high polyreactivity”; under “RVQLQESGGGLVQAGGTLRLSCAASGTIFIRGDMGWYRQAPGKEREFVATIDTGSNTYYADSEKGRFTISRDNAKKAVYLQMNCLKPGDTAVYYCVVDYQLSGRLWDWGQGTQVTLSS”, “low polyreactivity”. Next, “RVQLVESGGGLVQAGGSHRLSCAASGRIFKNYAIGWYRQAPGKQRELVASITIGSTTYAESEKGRFTISRDNAKNTVYLKMNSLKREDTAVYYCAARRPRGFQGPNPWGYYYWGQGTQVTVSS”: “high polyreactivity”; “RVQLVESGGGLVQAGGSLRLSCAASGSIFLIYAMGWYRQAPGKERELVAAISTGDSTYYADSVKGRFTISRDNAKNTVYLQMNSLKPEDTAVYYCAADTYSYEVPWWSAGMDYWGQGTQVTVSS”: “high polyreactivity”.

The values are drawn from the nanobody polyreactivity screen of Harvey et al. (2022).
